Measurements: patent EP4036575A1 (Yeda Research and Development Co. Ltd, dated 2022)

Biological target: T1, mouse recombinant His-calmodulin (mouse, UniProt P0DP26 1-149)
T1 construct: also called His-CaM; His-tagged calmodulin
Assay: SPR (Biacore), His-CaM immobilised on CM5, analyte preincubated with 0.3 mM CaCl2

Binder: KRRWKKNFIAVSAANRFKKISSSGAL
- Kd: 8.8 nM
